Test results taken from the supplement of paper PMC12764529.

Assay: folding stability dG unfold (combined trypsin and chymotrypsin); higher = more stable
Protocol: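 Folding stability of de novo designed mini-proteins (<80 aa, no Cys; designed by TrROS, TrMRF, ProteinMPNN and the joint model) was measured by cDNA display proteolysis with trypsin and chymotrypsin. Each protease was used at 11 concentrations in a threefold dilution series plus a no-protease condition. K50 was inferred by Bayesian fitting of sequencing counts, and dG unfold was derived against a sequence-predicted unfolded-state K50 (Tsuboyama et al. method). Sequences shown include variable-length N-terminal GS-type padding (SAGGSAGG...) inside a display construct carrying a PA tag. Rows were kept only if the AF2 dimer inter-PAE was >15, to exclude likely homo-oligomers.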

Folding stability dG unfold, < -1 kcal/mol:
SAGGSAGGMPPDTYVTEVVTTTSNVLGGKDIFRTIVKTTKILPVIEHPAGDGFTLVPPDTPGLESAGGSAGG [r6_405_JUSTAS]
SAGGSAGGPRRISLMYKFSPDDGEMEPPSIEDLAKKFFPGAEPKNIDIEHNPNNGYMQVEIPIKSAGGSAGG [r6_81_TrROS]
SAGGSAGGSAAPKPVTVEKTIKVPGNDPEKVKKELEPKGWKVLGVDKNTVKAKITLPPGYKKSAGGSAGGSA [r18_168_JUSTAS]
SAGGSAGGSADPQKVKEIAEKLQEKGYTVDVDRGPDSWTIRVENPKSGGKKKHKIDDPEDVLSAGGSAGGSA [r18_278_TrROS]
SAGGSAGGSAGDIDIKVEYNKENGMYRVRASFPDGKEVPIWMPPGQTPEEAKDQAKELLKSAGGSAGGSAGG [r17_161_TrROS]
SAGGSAGGSAGDLPPGKEIEIMMSTPEWADEFADNFPNAKIKIEPMPPKPKYDPETGKGYSAGGSAGGSAGG [r17_126_TrROS]
SAGGSAGGSAGEIEIEFEPGEEFLDFIKNLPGPIESIEIEPIDPDKVRARLKLNIPEDLASAGGSAGGSAGG [r11_143_TrMRF]
SAGGSAGGSAGEPGFTVRVLKKDLPTGEFSEVEIEVPASVPLEEVIEALDPDQVVAVEVESAGGSAGGSAGG [r11_386_TrMRF]
SAGGSAGGSAGEPIPFRIKVELPGNGREQEIDFPIKTPSEANEIANQLPPGFKRVKIEWYSAGGSAGGSAGG [r11_25_TrROS]
SAGGSAGGSAGERYYMVEIQPKNGRRIKIMIPDDPEKAVKKARELFPDYEVEVEPMKKPPSAGGSAGGSAGG [r11_850_TrROS]
SAGGSAGGSAGGADVPVAELEARGLGREALIAELGEDVTVTTEEHAPGAPVYRLTPLASSAGGSAGGSAGGS [r10_855_JUSTAS]
SAGGSAGGSAGGALLLFEEGRRLRYETPEEAEELAAAVRAESGRPDLRISLRELSPEELPSAGGSAGGSAGG [r7_839_JUSTAS]
SAGGSAGGSAGGDLEIHIPPGMDPAQADNFAKMFGLKNIKIEPVPPVKPRVYTKNGEPDSAGGSAGGSAGGS [r10_1083_TrROS]
SAGGSAGGSAGGDNIMIKIRNPGKPRTFMIKDPEQLKNMSLKELADELVDKHGWPVEIYPSAGGSAGGSAGG [r7_259_TrROS]
SAGGSAGGSAGGFKIEGNPMPDDDGPYWHIEVTHWRYNGGGPRPRKRTIMIKDPEDAKEFSAGGSAGGSAGG [r7_896_TrROS]
SAGGSAGGSAGGFVGTLKDYPKILKAAKEVGLKVGKIDPKNNKIYVDPSNPEKLKKAIESSAGGSAGGSAGG [r7_285_TrMRF]
SAGGSAGGSAGGGGKKKREISIMFEGGTPSDFKREAREIANSPENKDNVDEVEITMMPGSAGGSAGGSAGGS [r10_351_TrROS]
SAGGSAGGSAGGGLDDVPEEELRKILEEHGLPPEEVPPDTEVTLELPEGKPIKVRMTGRSAGGSAGGSAGGS [r10_623_JUSTAS]
SAGGSAGGSAGGGYRLVTTTERRTLVYREYDPTTDRFRPVKPVPTTIETTLLAPEDELLSAGGSAGGSAGGS [r10_610_JUSTAS]
SAGGSAGGSAGGKITEVDTSNNMVEITLKHPGGKRERPIDPGKTMAQILDELKENPDLVISAGGSAGGSAGG [r7_373_TrROS]
SAGGSAGGSAGGKKIKIVKVEPGKVKFSLGKKGKNIPGFEKEVKVEVYEIETDLEPLLNSAGGSAGGSAGGS [r10_654_TrMRF]
SAGGSAGGSAGGKKQTLVIRSDNKPIPIEYDDDNIKISNPNGKKQEIPPEDLPPDGIEPVSAGGSAGGSAGG [r7_748_TrROS]
SAGGSAGGSAGGKLRIFYPNPWQARWRAKTIQNEMMDNGYKIPPNVEIEIHPMRPDPGDWSAGGSAGGSAGG [r7_965_TrROS]
SAGGSAGGSAGGKRHRIDNIEPFNNDGEKLYRIRMPGGKEQRFPVGEEFTPNGAEIEPLPSAGGSAGGSAGG [r7_931_TrROS]
SAGGSAGGSAGGMKVIPIYSPGKGSKEEIIELVKKKNPNVKKVEVTYNPEEDVATVTIESAGGSAGGSAGGS [r10_225_JUSTAS]
SAGGSAGGSAGGMPVSFEELKKLPPNTVLIFSDGTVVTAPEEEVKKPFGKEKIVYVEEKPSAGGSAGGSAGG [r7_643_JUSTAS]
SAGGSAGGSAGGMTIRVVPVEITPDSSGVLRRDIEEVAAANPDAEVLETTPTSVLVRYKRSAGGSAGGSAGG [r11_771_JUSTAS]
SAGGSAGGSAGGPELGEIEPGPDGYLYVNLKVELPVELPGPDGKGTGPVEGTVRLKVGLSAGGSAGGSAGGS [r10_92_TrMRF]
SAGGSAGGSAGGPEWKEIDIPFDTPEDAIDEAEDKLPPDDKIDVHNPDDGQPITFTVPRNSAGGSAGGSAGG [r7_877_TrROS]
SAGGSAGGSAGGPIKVETEPYPDGYHRVEIMLPGNGQKKEIHFPNGQTPEQAKDWIKEWSAGGSAGGSAGGS [r10_825_TrROS]
SAGGSAGGSAGGPKEIPIKIKIYPPNGRKRERPVPLKSEEQALDQLQEAMPPGWFIEIWSAGGSAGGSAGGS [r10_145_TrROS]
SAGGSAGGSAGGPPIPIRIKLEHPDNGKKHTHEFPPGMSLKEVKNYMEKHPGYKIKDIEISAGGSAGGSAGG [r7_624_TrROS]
SAGGSAGGSAGGPPPSLPYELDKKVIEKLVKYPEDKLKPVEIKEIETSLFNPLTGTWLDSAGGSAGGSAGGS [r10_248_JUSTAS]
SAGGSAGGSAGGPPVPYKIKSPNGRPFPVQINPDSGQIEIEFPGETRKIPLGMNWEIEPVSAGGSAGGSAGG [r7_434_TrROS]
SAGGSAGGSAGGPRVTGTPVPGDDEPLLVVEREYTVEVGGGPRPVRVRFVFDHPDEALRSSAGGSAGGSAGG [r7_896_TrMRF]
SAGGSAGGSAGGQIRDPDGRKWIRVKGASPNKIKDELSELNPNVEIITNPDPNEMWIRIPSAGGSAGGSAGG [r7_370_TrROS]
SAGGSAGGSAGGRVKKDVTVRYRLTVRNPVTGKTTERTLTVHVPVLVDEEAELPPLSEVSAGGSAGGSAGGS [r10_1026_TrMRF]
SAGGSAGGSAGGSAMVYRTEVLVESEELPPPGVGGRLRREGEKVIVRKAPPEALEELGRSAGGSAGGSAGGS [r4_274_JUSTAS]
SAGGSAGGSAGGSELVGPEKAKEIIKEAYEKGYEEIPILLHLPNGETEEKIIKVPKNKISAGGSAGGSAGGS [r4_342_TrMRF]
SAGGSAGGSAGGSENEPIPIQVKIWDPKDGEPVRTIPFNIWPGRSINELANKFPGVEIVSAGGSAGGSAGGS [r4_187_TrROS]
SAGGSAGGSAGGSFVPMSQVTKVTPVGDKLVIETPGNPIVFSPEEIPIPEDLPLNFVPRSAGGSAGGSAGGS [r10_665_JUSTAS]
SAGGSAGGSAGGSGEDDVEVEVVPLPGDLTRTIERFPGLVRTFVYAPDSEVAEEEFELPSAGGSAGGSAGGS [r4_322_JUSTAS]
SAGGSAGGSAGGSGMMVPTTVTITVPAPDGTPVRTVTITTTSPTATLEEIKARVAPFLASAGGSAGGSAGGS [r4_375_JUSTAS]
SAGGSAGGSAGGSGMRLVEEVKYSTRKQPTGVPVYEVENLKVKEVPVKITVDSNGVLTLESAGGSAGGSAGG [r11_381_JUSTAS]
SAGGSAGGSAGGSGSSVTTVTEEPGRRVVTRFVPETGEEEVLSTEEVPAPPLPLSPALLSAGGSAGGSAGGS [r4_21_JUSTAS]
SAGGSAGGSAGGSGVKTRAGSFPDRDYTITEDPVVPGIYTVKFPPEVTVTLPKSEIPPLSAGGSAGGSAGGS [r10_556_JUSTAS]
SAGGSAGGSAGGSHTFEFPGRKITIHRNPNGMYPIEIETNGKPREIMIPPNDLDKLLKASAGGSAGGSAGGS [r4_346_TrROS]
SAGGSAGGSAGGSKEITFPAREIAEKLGIPPGRPITPEFLNKIKHVETDENGWVTLKLDSAGGSAGGSAGGS [r4_369_TrROS]
SAGGSAGGSAGGSKKKFKVKVIEKKPTTFPDGGVLVDYKVEIPETGALFDLKLTYTGEASAGGSAGGSAGGS [r4_94_TrMRF]
SAGGSAGGSAGGSMKILYKLKNDNKVITSLEELKKEIESGKKVTIEEVKEIEESPDVPLSAGGSAGGSAGGS [r4_479_JUSTAS]
SAGGSAGGSAGGSMKIYVTSPEEAKKEKEKILEELKKTNIPPKVKVEVKVIPKSEIPLESAGGSAGGSAGGS [r4_472_JUSTAS]
SAGGSAGGSAGGSMLLTSQLLREFPNGEVRLETEVVELELPDEPLPLPKPKPRRDPEGRLVSAGGSAGGSAG [r3_252_JUSTAS]
SAGGSAGGSAGGSMTVTVEPVPNSDKLRVTTTTTFLNPSNGQVTSTSTSTTVVPPGVAPSAGGSAGGSAGGS [r10_86_JUSTAS]
SAGGSAGGSAGGSMVVPASEVEEYVERRKRETGDRFEVTPIPEEGVTPVRLEPADPALESAGGSAGGSAGGS [r4_419_JUSTAS]
SAGGSAGGSAGGSNIPTDETVEKVVKIGPKPVTVTITAEPGKLLAKFPKEKKTVPISSLLSAGGSAGGSAGG [r7_37_JUSTAS]
SAGGSAGGSAGGSPPSLDYSVRTITTTVEETTFFPDNGTVRSRPVHVTTVVFEPLDSVESAGGSAGGSAGGS [r10_133_JUSTAS]
SAGGSAGGSAGGSPQIKVEYERNGGYYPVKISIPNGRKVEIPNMPVENAEKMAKEFLKKSAGGSAGGSAGGS [r4_383_TrROS]
SAGGSAGGSAGGSSAQIPFPDDGAWIMIDWDPEGRPKVKVHNPDNGEEIEFPPGAPIKISAGGSAGGSAGGS [r4_158_TrROS]
